Tested on: peptide library, one residue held at a place counted from the Y acceptor
Experiment: relative phosphorylation of the sub-library (ratio to the mean residue at this position); higher = residue favoured
Procedure, shortened: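 Every value reflects phosphorylation relative to the mean randomized residue. The sum of the 18 randomized residues, or 16 in the Ser/Thr-free library, served to normalize intensities at each position, which were then multiplied by that number. Intensities came from phosphorimaging with ImageQuant of biotinylated Tyr-centred peptides captured on streptavidin membranes after 90 min with purified recombinant kinases and 50 μM ATP plus γ-32P-ATP.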

Sequence of EPHA2, construct: aa561-end, human (P29317 561-976, looked up): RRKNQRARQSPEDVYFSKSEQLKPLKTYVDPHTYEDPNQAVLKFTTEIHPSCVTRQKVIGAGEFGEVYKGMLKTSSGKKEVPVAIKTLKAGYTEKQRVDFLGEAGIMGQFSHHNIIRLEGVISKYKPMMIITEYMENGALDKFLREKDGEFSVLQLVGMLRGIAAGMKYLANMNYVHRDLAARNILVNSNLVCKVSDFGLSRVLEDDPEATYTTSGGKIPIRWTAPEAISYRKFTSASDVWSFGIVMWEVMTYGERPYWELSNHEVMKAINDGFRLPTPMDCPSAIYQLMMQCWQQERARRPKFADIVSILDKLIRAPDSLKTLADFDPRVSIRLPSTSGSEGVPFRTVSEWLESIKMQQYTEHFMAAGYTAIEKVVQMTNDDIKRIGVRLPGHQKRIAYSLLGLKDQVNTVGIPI
Sequence of EPHA1, construct: aa568-end, human (P21709 568-976, looked up): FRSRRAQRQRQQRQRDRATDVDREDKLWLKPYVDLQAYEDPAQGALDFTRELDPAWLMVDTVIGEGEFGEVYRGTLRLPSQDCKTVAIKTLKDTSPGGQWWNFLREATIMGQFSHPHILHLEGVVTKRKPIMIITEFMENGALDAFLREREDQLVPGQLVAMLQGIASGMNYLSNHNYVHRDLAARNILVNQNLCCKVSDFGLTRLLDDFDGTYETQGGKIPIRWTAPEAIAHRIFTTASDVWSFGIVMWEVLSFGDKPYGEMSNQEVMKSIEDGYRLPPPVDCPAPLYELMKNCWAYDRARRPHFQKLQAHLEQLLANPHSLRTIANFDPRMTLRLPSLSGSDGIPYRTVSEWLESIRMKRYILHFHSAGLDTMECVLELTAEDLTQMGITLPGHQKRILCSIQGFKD
Sequence of DDR2, construct: aa522-end, human (Q16832 522-855, looked up): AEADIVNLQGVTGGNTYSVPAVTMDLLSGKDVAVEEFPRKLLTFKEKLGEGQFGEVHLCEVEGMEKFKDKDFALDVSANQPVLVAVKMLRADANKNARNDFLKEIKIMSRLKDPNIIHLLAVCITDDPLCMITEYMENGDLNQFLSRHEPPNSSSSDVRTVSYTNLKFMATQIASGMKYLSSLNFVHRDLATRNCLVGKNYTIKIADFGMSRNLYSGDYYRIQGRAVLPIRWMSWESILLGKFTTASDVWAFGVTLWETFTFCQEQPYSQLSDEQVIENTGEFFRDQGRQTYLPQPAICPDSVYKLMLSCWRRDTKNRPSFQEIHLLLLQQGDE

DDR2, construct: aa522-end, human (from UniProt Q16832)
relative phosphorylation
Conditions	at +1	at +2	at +3	at +4	at +5	at -1	at -2	at -3	at -4	at -5
A fixed	2.33	0.781	0.51	0.457	0.507	1.2	0.969	0.938	0.924	1.1
D fixed	0.221	0.71	0.309	1.13	0.445	1.83	0.707	0.692	0.688	0.848
E fixed	0.206	1.66	0.283	1.36	0.393	0.583	0.635	0.567	0.724	0.771
F fixed	0.905	0.738	1.38	2.06	2.29	0.517	0.358	1.13	0.728	0.723
G fixed	0.361	0.37	0.296	0.372	0.632	0.617	1.19	1.09	1.43	1.38
H fixed	0.894	0.92	0.901	1.63	0.817	1.14	1.58	1.82	1.29	1.17
I fixed	1.13	1.08	3.3	1.09	2.43	0.879	0.316	0.472	0.627	0.548
K fixed	0.899	0.687	0.35	0.56	0.607	0.653	1.85	1.44	1.6	1.42
L fixed	0.602	1.42	1.94	0.851	1.4	0.828	0.449	0.466	0.581	0.702
M fixed	1.12	1.3	2.09	0.824	1.08	0.593	0.597	0.534	0.933	0.787
N fixed	0.502	1.03	0.365	1.05	0.747	2.72	1.66	1.3	0.985	1.01
P fixed	0.745	0.655	0.306	0.383	0.962	1.57	1.55	1.15	1.52	1.45
Q fixed	0.823	0.933	0.505	1.02	0.56	0.829	1.1	0.917	1.01	0.996
R fixed	1.38	0.825	0.49	0.88	0.861	0.656	2.03	1.96	1.89	1.67
S fixed	1.04	1.14	0.464	0.701	0.586	0.989	1.21	0.968	0.876	1.02
T fixed	1.54	1.18	0.991	0.855	0.688	1.11	1.03	0.906	0.858	0.905
V fixed	2.79	1.32	1.95	1.02	1.76	0.839	0.372	0.553	0.651	0.73
W fixed	0.511	1.24	1.58	1.76	1.24	0.438	0.383	1.1	0.679	0.754
pThr fixed	0.698	1.61	0.5	1.87	0.616	0.706	0.487	0.467	0.612	0.696
pTyr fixed	0.68	2.07	0.439	2.16	0.38	0.474	0.473	0.614	0.613	0.75

EGFR, construct: aa668-end, human (from UniProt P00533)
relative phosphorylation
Conditions	at +1	at +2	at +3	at +4	at +5	at -1	at -2	at -3	at -4	at -5
A fixed	0.795	0.684	0.702	0.943	1.08	0.639	1.08	0.898	1.14	0.991
D fixed	0.496	1.29	1.17	1.09	1.12	2.93	1.74	2.12	1.58	1.34
E fixed	0.948	1.95	1.08	1.42	1.06	2.35	1.92	2.39	1.59	1.2
F fixed	2.04	1.23	1.06	0.967	1.06	0.716	0.637	0.848	1.01	0.989
G fixed	0.246	0.422	0.884	1.19	1.11	0.487	1.09	1.03	1.1	1.24
H fixed	1.4	0.836	0.882	1.08	0.904	0.988	0.813	0.949	0.77	0.989
I fixed	1.85	1.12	1.72	0.823	0.785	1.77	0.862	0.601	0.801	0.955
K fixed	0.26	0.498	0.34	0.895	0.935	0.315	0.605	0.561	0.789	0.794
L fixed	0.988	0.964	1.51	0.756	0.918	1.07	0.831	0.748	0.992	1
M fixed	0.826	1.03	1.02	1.11	0.902	0.757	0.821	0.776	0.855	0.96
N fixed	0.383	1.01	0.61	0.783	0.881	1.09	1.06	1.2	0.917	1.1
P fixed	0.313	0.623	0.824	1.1	1.66	0.721	1.11	0.934	1.1	1.07
Q fixed	0.804	0.905	0.941	0.969	0.827	0.768	1.13	0.881	1.08	0.954
R fixed	0.299	0.685	0.665	0.978	0.825	0.317	0.575	0.586	0.763	0.87
S fixed	0.762	0.843	0.79	0.931	1.14	0.546	1.13	0.995	0.827	0.88
T fixed	1.09	0.907	0.956	0.964	0.913	0.784	0.923	0.935	0.672	0.802
V fixed	2.64	1.05	1.47	0.88	0.899	1.16	0.979	0.7	0.825	0.851
W fixed	1.85	1.96	1.37	1.12	0.981	0.598	0.708	0.843	1.19	1
pThr fixed	1.41	1.5	0.796	1.02	1.08	2.05	1.57	1.61	1.41	1.2
pTyr fixed	11.9	5.31	0.921	1.45	1.01	5.3	2.06	2.19	2.18	1.69

EPHA1, construct: aa568-end, human (from UniProt P21709)
relative phosphorylation
Conditions	at +1	at +2	at +3	at +4	at +5	at -1	at -2	at -3	at -4	at -5
A fixed	1.63	0.704	0.7	0.747	1.08	0.615	1.22	0.904	1.25	1.1
D fixed	0.645	0.963	0.21	0.562	0.699	0.705	0.891	1.06	0.864	0.752
E fixed	1.87	1.03	0.191	0.665	0.616	0.52	1.04	1.18	1.11	0.59
F fixed	0.853	1.68	1.4	1.27	1.17	1.37	0.531	1.16	0.936	1.1
G fixed	0.729	0.307	0.486	1.21	1.21	0.23	1.38	1.07	1.47	1.26
H fixed	0.604	0.912	0.877	1.38	0.987	0.87	1.03	1.18	0.919	0.917
I fixed	1.41	0.997	2.57	0.732	0.92	2.74	0.716	0.784	0.853	0.941
K fixed	0.292	0.642	0.319	0.931	1.12	0.381	1	0.801	0.993	1.12
L fixed	1.15	1.18	2.29	0.816	0.955	2.38	0.789	0.803	1	1.07
M fixed	1.88	1.21	1.5	1.26	0.966	1.11	0.633	0.926	0.948	0.968
N fixed	0.276	1.17	0.385	0.726	0.773	1	1.11	1.16	0.852	0.937
P fixed	0.157	0.521	1.26	1.19	1.57	0.445	1.29	0.929	1.13	1.17
Q fixed	1.11	0.792	0.679	0.86	0.807	0.433	1.05	0.77	0.95	0.914
R fixed	0.477	1.06	0.696	1.47	1.13	0.587	1.36	1.07	1.23	1.26
S fixed	0.799	0.697	0.488	0.739	1	0.391	1.46	1.03	0.868	0.86
T fixed	0.823	0.867	0.576	0.813	0.9	1.19	0.845	0.917	0.666	0.725
V fixed	1.93	0.974	2.03	0.73	0.853	1.43	0.821	0.78	0.827	0.913
W fixed	1.36	2.3	1.36	1.89	1.24	1.61	0.821	1.48	1.14	1.4
pThr fixed	0.981	1.05	0.17	0.4	0.508	1.39	0.685	0.721	0.608	0.558
pTyr fixed	1.87	2.54	0.57	0.629	0.727	0.904	0.81	0.888	0.88	0.684

EPHA2, construct: aa561-end, human (from UniProt P29317)
relative phosphorylation
Conditions	at +1	at +2	at +3	at +4	at +5	at -1	at -2	at -3	at -4	at -5
A fixed	1.31	0.627	0.592	0.785	0.992	0.392	1.11	0.791	1.04	0.971
D fixed	0.849	1.83	0.379	0.913	1.26	3.48	1.25	1.54	1.25	1.23
E fixed	2.74	2.13	0.34	1.28	1.22	2.02	1.74	1.76	1.41	1.03
F fixed	0.725	1.35	1.4	1.13	1.1	0.943	0.617	1.32	1.09	1.12
G fixed	0.517	0.298	0.508	1.15	1.15	0.198	1.22	0.847	1.26	1.15
H fixed	1.65	0.815	0.725	1.29	0.993	0.836	0.817	1.06	0.843	0.916
I fixed	1.84	1.08	3.27	0.777	0.778	1.92	0.914	0.914	0.999	1.04
K fixed	0.165	0.339	0.183	0.567	0.616	0.17	0.657	0.502	0.737	0.873
L fixed	0.892	0.944	1.84	0.662	0.877	1.83	0.82	0.873	1.05	1.05
M fixed	1.62	0.988	1.64	0.989	0.87	0.733	0.654	0.809	0.986	0.978
N fixed	0.322	1.07	0.395	0.718	0.8	1.83	1.3	1.07	0.802	1.06
P fixed	0.15	0.54	1.33	1.52	1.67	0.257	1.24	1.08	1.07	0.972
Q fixed	0.852	0.723	0.628	0.844	0.773	0.351	1.01	0.774	1.05	0.986
R fixed	0.18	0.481	0.262	0.692	0.613	0.219	0.832	0.607	0.871	0.92
S fixed	0.61	0.691	0.426	1.02	1.02	0.366	1.39	0.923	0.815	0.835
T fixed	0.783	0.816	0.621	0.886	1.22	0.931	1	0.903	0.79	0.827
V fixed	1.81	1.05	2.07	0.759	0.827	0.974	0.838	0.888	0.802	0.9
W fixed	0.979	2.23	1.4	2.02	1.21	0.554	0.61	1.34	1.12	1.15
pThr fixed	2.09	2.85	0.454	1.09	0.852	3.53	0.956	0.833	1.22	1.26
pTyr fixed	3.93	7.03	1.08	1.44	1.31	4.75	1.15	1.43	1.54	1.4
